According to paper PMC12377726 (Proceedings of the National Academy of Sciences of the …, 2025):
Positions count from the first letter of the chain named.

B1: G001_gp1_V10_VRC01c_2021-0116 (antibody, V domains shown)
VH: QVQLVQSGAEVKKPGASVKVSCKASGYTFTDYYIHWVRQAPGQGLEWMGWINPNSGGTNYAQKFQGRVTMTRDTSITTAYMELSRLRSDDTAVYYCARICSGGSCYRTTSTFDYWGQGTLVTVSS
VL: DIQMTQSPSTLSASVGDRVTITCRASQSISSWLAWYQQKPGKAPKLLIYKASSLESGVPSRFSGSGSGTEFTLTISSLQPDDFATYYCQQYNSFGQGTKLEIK
B2: G001_gp1_V10_VRC01c_2021-0103 (antibody, V domains shown)
VH: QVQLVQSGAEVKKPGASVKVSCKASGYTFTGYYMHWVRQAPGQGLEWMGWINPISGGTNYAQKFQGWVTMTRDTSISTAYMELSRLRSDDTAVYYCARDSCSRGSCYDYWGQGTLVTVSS
VL: QSALTQPRSVSGSPGQSVTISCTGTSSDVGGYNYVSWYQQHPGKAPKLMIYDVSKRPSGVPDRFSGSKSGNTASLTISGLQAEDEADYYCCSYEVFGGGTKLTVL
B3: G001_gp1_V10_VRC01c_2021-0114 (antibody, V domains shown)
VH: QVQLVQSGAEVKKPGASVKVSCKASGYTFTGYNIHWVRQDPGQGLEWMGWINPNSGGTNYAQKFQDWVTMTRDMSISTAYMELSRLRSDDTAIYYCAAVAGRRGRWAFDIWGQGTMVTVSS
VL: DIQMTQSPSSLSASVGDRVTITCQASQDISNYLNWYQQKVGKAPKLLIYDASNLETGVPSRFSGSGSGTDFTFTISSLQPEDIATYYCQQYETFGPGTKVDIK
B4: G001_gp1_V10_VRC01c_2021-0097 (antibody, V domains shown)
VH: QVQLVQSGAEVKKPGASVKVSCKASGHTFTGYYMHWVRQAPGQGLEWMGWINSNSGGTNYAQKFQGWVTMTRDTSINTVYMELNRLTSDDTAVYYCAGGGRSTYYSWWFDPWGQGTLVTVSS
VL: EIVLTQSPGTLSLSPGERATLSCRASQSVSSSYLAWYQQKPGQAPRLLIYGASSRATGIPDRFSGSGSGTDFTLTISRLEPEDLAVYYCQQWETFGQGTKVEIK
B5: G001_gp1_V10_VRC01c_2021-0101 (antibody, V domains shown)
VH: QVHLVQSGAEVKKPGASVKVSCKASGYTFTGYSMHWVRQAPGQGLEWMGWINPNSGGTNYAQKFQGRVTMTRDTSINTGYMELSRLRSDDTAVYYCARPHSNWYFDLWGRGTLVTVSS
VL: B4 VL with S32N, L84F, W92Y
B6: G001_gp1_V10_VRC01c_2021-0098 (antibody, V domains shown)
VH: B4 VH with H27N, T30S, S53P, N77S, V79A, N84S, T87R, G98R, T103A
VL: B4 VL with S53F, L84F
B7: G001_gp1_V10_VRC01c_2021-0112 (antibody, V domains shown)
VH: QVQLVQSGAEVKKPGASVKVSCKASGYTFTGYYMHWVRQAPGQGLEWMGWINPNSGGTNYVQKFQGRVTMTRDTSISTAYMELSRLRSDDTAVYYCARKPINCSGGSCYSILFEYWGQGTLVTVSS
VL: B4 VL with R24W, S30N, S32R, L34V, L84F, W92Y, K100R, V101L
B8: G001_gp1_V10_VRC01c_2021-0108 (antibody, V domains shown)
VH: QVQLVQSGAEVKKPGASVKISCKASGYTFSGYYMHWVRQAPGQGLEWMGWINPNSGGTNYAQKFQDWVTMTRDTSISTVYMELSRLRSDDTAVYYCARDWCSGDTCYSGPTFDYWGQGTLVTVSS
VL: B4 VL with I2S, S32N, L84F, W92Y
B9: G001_gp1_V10_VRC01c_2021-0115 (antibody, V domains shown)
VH: QVQLVQSGAEVKKPGASVKVSCNASGYTFTGYYMHWVRQAPGQGLEWMGWINPNSGGTNFAQKFQGWVTMTRDTSISTAYMELSRLRSDDTAVYYCARSIVGATIFVYWGQGTLVTVSS
VL: B4 VL with V29L, L84F, W92Y, E93G, T94A, Q97P, E102D
B10: G001_gp1_V10_VRC01c_2021-0106 (antibody, V domains shown)
VH: QVQLVQSGAEVKKPGASVKVSCKASGYTFTDYYIHWVRQAPGQGLEWMGWLNPNSGGTNYAQKFQDWVTMTRDTSINTAYMELSRLRSDDTAVYYCASSLSGYGSFSFDYWGQGTLVTVSS
VL: B4 VL with V29G, S32R, Y33S, S77N, L84S, W92Y, E93D, T94S, V101L
B11: G001_gp1_V10_VRC01c_2021-0110 (antibody, V domains shown)
VH: QVQLVQSGAEVKKPGASVRVSCKASGYTFTGYYMHWVRQAPGQGLEWMGWTNPNSGGTNYAQKFQGWVTMTRDTSISTAYMELSRLRSDDTAVYYCARGEAYSTRYFDLWGRGTLVTVSS
VL: B4 VL with G51D, A52T, L84F, W92Y
B12: G001_gp1_V10_VRC01c_2021-0104 (antibody, V domains shown)
VH: QVHLVQSGAEVKKPGASVKVSCKASGYSFTDYYIYWVRQAPGQGLEWMGWINPNSGGTNYAQKFQAWVTMTRDTSISTAYMELNRLTSDDTAVYYCARRTMPTTEFDSWGQGTLVTVSS
VL: EIVLTQSPGTLSLSPGERVTLSCRASQSLSNNYLAWYQQKPGQAPRLLIYGVSNRATGIPDRFRGSGSGTDFTLTISRLEPEDCAVYYCQQYVSFGQGTKLEIK
B13: G001_gp1_V10_VRC01c_2021-0107 (antibody, V domains shown)
VH: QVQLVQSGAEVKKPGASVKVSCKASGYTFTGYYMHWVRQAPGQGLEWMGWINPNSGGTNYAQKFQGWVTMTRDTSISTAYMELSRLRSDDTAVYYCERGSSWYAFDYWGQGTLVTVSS
VL: DIQMTQSPSSLSASVGDRVTITCRASQSISSYLNWYQQKPGKAPKLLIYAASSLQSGVPSRFSGSGSGTDFTLTISSLQPEDFATYYCQHQGTFGQGTKVEIK
B14: G001_gp1_V10_VRC01c_2021-0120 (antibody, V domains shown)
VH: QVQLVQSGAEVKKPGASVKVSCKASGYTFSGYYMHWVRQAPGQGLEWMGWINPNSGGTNYAQRFQDWVTMTRDTSISTAYMELSRLRSDDTAVYYCARAEYSSAWCFDYWGQGTLVTVSS
VL: DIQMTQSPSSLSASVGDRVTITCQASQDSSKSLNWYQQKPGKAPKLLIYDVSNLETGVPSRFSGSGSGRDFTFTISSLQAEDTATYYCQQYDIFGPGTKVHIK
B15: G001_gp1_V10_VRC01c_2021-0119 (antibody, V domains shown)
VH: QVQLVQSGAEVKRPGASVMVSCKASGYTFTNYYMHWVRQAPGQGLEWMGWINPSSGGTNYAQKFQDWVTMTRDTSISTVYMELNRLRFDDTAVYFCARAQSSGWFLDFWGQGTLVTVSS
VL: DIQMTQSPSSLSASVGDRVTITCQASQGFTKYLNWYQQKLGKAPKLLIYDASNLETGVPSRFSGSASGTDFTFTISSLQPEDIATYYCQQYDLFGGGTKVEIR
B16: G001_gp1_V10_VRC01c_2021-0096 (antibody, V domains shown)
VH: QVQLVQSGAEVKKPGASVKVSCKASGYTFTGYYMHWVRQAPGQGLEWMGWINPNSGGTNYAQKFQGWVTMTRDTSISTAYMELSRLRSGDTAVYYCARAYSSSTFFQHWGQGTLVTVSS
VL: EIVMTQSPATLSVSPGERATLSCRASQSVSSNLAWYQQKPGQAPRLLIYGASTRATGIPARFSGSGSGTEFTLTISSLQSEDLAVYYCQQYTAFGQGTKVEIK
B17: G001_gp1_V10_VRC01c_2021-0117 (antibody, V domains shown)
VH: QVQLVQSGAEVKKPGASVKVSCKASGYTFTGYYMHWVRQAPGQGLEWMGWINPNSGGTNYAQKFQGWVTMTRDTSISTAYMEVSRLTSDDTAVYYCARGEDNWYSFNYWGQGTLVTVSS
VL: B16 VL with N32K, A51T, L83F, Q90L, T92E, A93T
B18: G001_gp1_V10_VRC01c_2021-0099 (antibody, V domains shown)
VH: QVQLVQSGAEVKKPGASVKVSCKASGNTFTDYYMYWVRQAPGQGLEWMGWINPNSGGTNYAQKFQGRVTMTRDTSISTAYMELSRLRSDDTAVYYCAGRHYDDSSGYKAFQHWGQGTLVTVSS
VL: DIQMTQSPSTLSASVGDRVTITCRASQSFSSWLAWYQQKPGKAPKLLIYKASSLESGVPSRFSGSGSGTEFTLTISSLQPDDVATYYCQQYETFGQGTKVEIK
B19: G001_gp1_V10_VRC01c_2021-0105 (antibody, V domains shown)
VH: QVQLVQSGAEVKKPGASVKVSCKASGYTFTGYYIHWVRQAPGQGLEWMGWINPNSGGTNYARQFEGWVTMTRDTSISTAYMELRRLRSDDTAMYYCATEDAVVAGTTFDYWGQGTLVTVSS
VL: B18 VL with F29M, E55Q, V83F, E92N, T93S, Q96G
B20: G001_gp1_V10_VRC01c_2021-0111 (antibody, V domains shown)
VH: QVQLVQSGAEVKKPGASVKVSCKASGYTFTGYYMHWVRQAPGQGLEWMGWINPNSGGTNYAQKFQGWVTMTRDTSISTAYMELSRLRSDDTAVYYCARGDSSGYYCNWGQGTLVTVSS
VL: B18 VL with F29I, V83F, E92T, Q96G
B21: G001_gp1_V10_VRC01c_2021-0093 (antibody, V domains shown)
VH: QVQLVQSGAEVHNPGASVKVSCKASGYTFSDHYIHWVRQAPGQGLEWMGWINPNSGGTNYAQKFQGWVSMTRDTSITTAYMELSRLRSADTAVYYCAIPGICPGGNCYSYYFDSWGQGTLVSVSS
VL: EIVLTQSPGTLSVSPGERATLSCRSSQSVSSLAWYQLKPGQAPRLLIYGAYNRAIGIPDRFSGSGSGTDFTLTISRLEPEDLAVYYCQQYEFFGQGTKLEIK
B22: G001_gp1_V10_VRC01c_2021-0094 (antibody, V domains shown)
VH: QVQLVQSGAEVKKPGASVKVSCKASGYTFTGYYMHWVRQAPGQGLEWMGWINPNSGGTNYAEKFQGWVTMTRDTSISTAYMELRRLKSDDTAVYYCATSLGGNPGRIWDMDVWGQGTTVTVSS
VL: QSALTQPASVSGSPGQSITISCTGTSSDVGGYNFVSWYQQHPGKAPKLIIYDVTNRPSGVSNRFSGSKSGNTASLTISGLQAEDEANYYCSSYEVFGTGTKVTVL
B23: G001_gp1_V10_VRC01c_2021-0095 (antibody, V domains shown)
VH: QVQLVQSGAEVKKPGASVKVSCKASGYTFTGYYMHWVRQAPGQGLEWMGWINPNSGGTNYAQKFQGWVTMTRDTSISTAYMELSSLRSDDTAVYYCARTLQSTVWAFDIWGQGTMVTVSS
VL: DIQMTQSPSSLSASVGDRVTITCQASQDISNYLNWYQQKPGKAPQLLIYDASNLETGVPSRFSGRGSGTDFTFTISSLQPEDIATYYCQQYDTFGQGTRLEIK
B24: G001_gp1_V10_VRC01c_2021-0109 (antibody, V domains shown)
VH: QVQLVQSGAEVKKPGASVKVSCKASGYSFTGYYMHWVRQAPGQGLEWMGWMNPNSGGTNYAQKFQGWVTMTRDTSISTAYMELSRLRSDDSAVYYCARARSGYSSGWYWAYWGQGTLVTVSS
VL: B23 VL with Q45K, R65S, D92E, T93F, Q96G, R99K, L100V
B25: G001_gp1_V10_VRC01c_2021-0100 (antibody, V domains shown)
VH: PVQLVQSGAEVKKPGASVKVSCKASGYTFTGYYIHWVRQAPGQGLEWMGWINPNSGGTNYAQKFQGRVTMTRDTSVSTAYMELSRLRSDDTAVYYCARRLAAASGVFGVRFDPWGQGTLVTVSS
VL: B23 VL with V19I, K39R, Q45K, R65S, T93F, Q96P, R99K, L100V, E101D

Each binder was assayed against eOD-GT8 (engineered outer domain germline-targeting version 8), monomer (HIV-1 gp120 engineered outer domain, …).

| Binder | binding result |
| --- | --- |
| B1 | binds |
| B2 | binds |
| B3 | binds |
| B4 | binds |
| B5 | binds |
| B6 | binds |
| B7 | binds |
| B8 | binds |
| B9 | binds |
| B10 | binds |
| B11 | binds |
| B12 | binds |
| B13 | binds |
| B14 | binds |
| B15 | binds |
| B16 | binds |
| B17 | binds |
| B18 | binds |
| B19 | binds |
| B20 | binds |
| B21 | binds |
| B22 | binds |
| B23 | binds |
| B24 | binds |
| B25 | binds |
